Experimental data taken from the Human Domainome abundance scans (Beltran et al. 2025).
± gives the uncertainty stated by the source.

B1: Zinc finger homeobox protein 4, residues 2183 to 2238; numbered along this chain, Q86UP3 (parent)
chain: SSRTRFTDYQLRVLQDFFDTNAYPKDDEIEQLSTVLNLPTRVIVVWFQNARQKARK
B2: Tyrosine-protein kinase BTK, residues 215 to 273; numbered along this chain, Q06187 (parent)
chain: ELKKVVALYDYMPMNANDLQLRKGDEYFILEESNLPWWRARDKNGQEGYIPSNYVTEAE

Variants of: B1
Test: abundance fitness (aPCA) (normalised: wild type 0, dead -1); higher = more abundant; growth selection in yeast, the domain comes from the species named
Conditions: Homo sapiens

| Variant | abundance fitness |
| --- | --- |
| SERTRFTDYQLRVLQDFFDTNAYPKDDEIEQLSTVLNLPTRVIVVWFQNARQKARK [S2E] | 0.195 ± 0.11 |
| SIRTRFTDYQLRVLQDFFDTNAYPKDDEIEQLSTVLNLPTRVIVVWFQNARQKARK [S2I] | -0.059 ± 0.13 |
| SNRTRFTDYQLRVLQDFFDTNAYPKDDEIEQLSTVLNLPTRVIVVWFQNARQKARK [S2N] | 0.125 ± 0.15 |
| SKRTRFTDYQLRVLQDFFDTNAYPKDDEIEQLSTVLNLPTRVIVVWFQNARQKARK [S2K] | 0.053 ± 0.19 |
| SHRTRFTDYQLRVLQDFFDTNAYPKDDEIEQLSTVLNLPTRVIVVWFQNARQKARK [S2H] | -0.106 ± 0.16 |

Variants of: B2
Test: as above
Conditions: Homo sapiens

| Variant | abundance fitness |
| --- | --- |
| E57W | -0.051 ± 0.042 |
| E57D | -0.072 ± 0.074 |
| E57F | -0.026 ± 0.063 |
| E57S | -0.009 ± 0.035 |
| E57I | -0.133 ± 0.13 |
| E57Q | -0.024 ± 0.043 |
| E57Y | -0.018 ± 0.083 |
| E57V | 0.03 ± 0.044 |
| E57G | 0.01 ± 0.048 |
| E57T | -0.006 ± 0.051 |
| E57L | -0.057 ± 0.037 |
| E57A | -0.025 ± 0.042 |
| E57H | 0.023 ± 0.071 |
| E57K | -0.047 ± 0.053 |
| E57M | -0.022 ± 0.056 |
| E57R | -0.065 ± 0.033 |
| E57N | 0.088 ± 0.069 |
| A58D | -0.092 ± 0.06 |
| A58W | -0.11 ± 0.083 |
| A58Q | -0.072 ± 0.077 |
| A58P | -0.001 ± 0.064 |
| A58T | -0.051 ± 0.053 |

| Variant | abundance fitness |
| --- | --- |
| A58G | -0.01 ± 0.036 |
| A58K | -0.005 ± 0.086 |
| A58F | -0.016 ± 0.073 |
| A58E | 0.08 ± 0.057 |
| A58L | -0.113 ± 0.039 |
| A58I | -0.223 ± 0.071 |
| A58N | -0.012 ± 0.073 |
| A58R | -0.03 ± 0.041 |
| A58V | 0.001 ± 0.037 |
| A58C | -0.058 ± 0.06 |
| A58Y | -0.016 ± 0.075 |
| T56C | -0.032 ± 0.092 |
| T56P | -0.733 ± 0.07 |
| T56D | 0.021 ± 0.062 |
| T56F | -0.169 ± 0.068 |
| T56L | -0.086 ± 0.031 |
| T56Q | 0.043 ± 0.067 |
| T56I | -0.184 ± 0.071 |
| T56S | -0.03 ± 0.04 |
| T56M | 0.025 ± 0.058 |
| T56R | 0.012 ± 0.037 |
| T56N | -0.094 ± 0.087 |

| Variant | abundance fitness |
| --- | --- |
| T56Y | -0.191 ± 0.064 |
| T56W | -0.044 ± 0.055 |
| T56G | 0.08 ± 0.055 |
| T56A | 0.033 ± 0.038 |
| T56H | 0.014 ± 0.087 |
| T56V | 0.014 ± 0.038 |
| E59D | -0.128 ± 0.086 |
| E59S | 0.067 ± 0.053 |
| E59Q | -0.015 ± 0.1 |
| E59T | -0.012 ± 0.083 |
| E59I | -0.014 ± 0.088 |
| E59M | -0.138 ± 0.083 |
| E59V | 0.023 ± 0.075 |
| E59K | -0.008 ± 0.08 |
| E59C | -0.061 ± 0.073 |
| E59P | -0.025 ± 0.1 |
| E59H | -0.054 ± 0.13 |
| E59W | -0.081 ± 0.064 |
| E59L | -0.097 ± 0.06 |
| E59Y | -0.116 ± 0.097 |
| E59F | -0.072 ± 0.1 |
| E59G | 0.042 ± 0.056 |
